According to publication PMC5538822, “RNA-dependent stabilization of SUV39H1 at constitutive heterochromatin”:

How the values were obtained:
Conditions in all cases: protein: recombinant; tags: MBP; label: 32P
[1] = molecular target: T1, MBP-SUV39H1 42-106 R55A (Homo sapiens, UniProt O43463 42-106, R55A); assay: EMSA; 20 mM Tris-HCl pH 7.4, 50 mM NaCl, 10% glycerol, ~4 U RNase inhibitor, room temperature 10 min; native gel 0.5X TBE at 25 C; filter binding on nitrocellulose in the same buffer
T1 sequence: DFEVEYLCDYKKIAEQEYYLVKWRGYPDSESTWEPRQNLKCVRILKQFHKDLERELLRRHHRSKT

[2] = molecular target: T2, MBP-SUV39H1 42-106 R84A (Homo sapiens, UniProt O43463 42-106, R84A); assay: as above
T2 sequence: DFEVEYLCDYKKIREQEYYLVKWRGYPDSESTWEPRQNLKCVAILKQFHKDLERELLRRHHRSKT

[3] = molecular target: T1, MBP-SUV39H1 42-106 R55A; assay: filter binding; 20 mM Tris-HCl pH 7.4, 50 mM NaCl, 10% glycerol, ~4 U RNase inhibitor, room temperature 10 min; native gel 0.5X TBE at 25 C; filter binding on nitrocellulose in the same buffer
[4] = molecular target: T2, MBP-SUV39H1 42-106 R84A; assay: as above

Measured: binding signal

AUAUGGGAACCACUGAUCC (ssRNA) [sense 19mer ssRNA]
> 40 fold lower affinity than WT: all assays above
